Source: US20210179715A1 (Genentech, published 2021)
Values joined by “and” are separate entries in the source; they are usually repeats but may differ in a detail not shown here. Equal values may be shown once. Read-outs that look alike come from different tables or passages of the source. Blank lines part the entries; values can stand above or below the binder they belong to.

Experiments:
[1] = target: T1, 27mer human CD3 polypeptide conjugated to biotin (human, conjugated to biotin (site not stated)); assay: BIAcore T200 SPR; biotin 27mer CD3 peptide on SA chip; TDB flowed; 37 C
T1 construct: The assay text says only '27mer human CD3 polypeptide'; also called HuCD3e pept biotin
T1 peptide: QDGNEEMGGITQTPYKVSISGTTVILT
Description: Assays were performed using a BIAcore T200. 27mer human and cyno CD3 polypeptides were conjugated to biotin and were immobilized on a SA CM5 chip. LY6G6D TDBs were flowed through at 37° C.

human LY6G6D-Fc [2] = target: T2, human LY6G6D-Fc (human, UniProt O95868 20-104); assay: BIAcore SPR; LY6G6D-Fc on chip; TDB flowed; 37 C
T2 construct: also called hu Ly6G6D; huLY6G6D; not shown: linker and Fc part
T2 sequence: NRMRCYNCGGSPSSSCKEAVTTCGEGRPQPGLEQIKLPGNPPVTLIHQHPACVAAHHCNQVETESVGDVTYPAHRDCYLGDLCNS
Description: TDBs comprising the anti-LY6G6D arm 20Al2.QNTv12 and the anti-CD3 38E4.v1 (left panel; produced using a two-cell-manufacturing system), 38E4.v1 MD1 (center panel; produced using a one-cell-manufacturing system), or 38E4.v1 MD4 arm (right panel; produced using a one-cell-manufacturing system) were assayed for affinity for a human Ly6G6D polypeptide (FIG. 25) using a BIAcore assay.

[3] = target: T1, 27mer human CD3 polypeptide conjugated …; assay: BIAcore T200 SPR; biotin 27mer CD3 peptide on SA chip; TDB flowed; 37 C
Description: The MD1 and MD4 variants thus retained the high affinity of 38E4v1. Assays were performed using a BIAcore T200: 27mer human and cyno CD3 polypeptides were conjugated to biotin and were immobilized on a SA CM5 chip, and TDBs were flowed through at 100 μl/min at 37° C.

human LY6G6D-Fc [4] = target: T2, human LY6G6D-Fc; assay: BIAcore SPR; LY6G6D-Fc on chip; TDB flowed; 37 C; remark: listed apart in the source
Description: TDBs comprising the anti-LY6G6D 20A12.QNTv12 arm and the anti-CD3 38E4.v1 arm (FIG. 24A) or 40G5C arm (FIG. 24B) were assayed for affinity for a human and cyno Ly6G6D polypeptide using a BIAcore assay. Ly6G6D-Fc was directly immobilized on the chip, and the TDB was flowed through at 37° C. Similar assays were performed for TDBs comprising the anti-LY6G6D 1G4 arm and the anti-CD3 38E4.v1 arm (FIG. 24C) or 40G5C arm (FIG. 24D).

human LY6G6D-Fc [5] = target: T2, human LY6G6D-Fc; assay: BIAcore SPR; LY6G6D-Fc on chip; Fab flowed; 37 C
Description: (§1) The humanized rb.20A12 variant 20A12.QNTv12, the humanized rb.6E10 variant 6E10.v114, and the anti-LY6G6D 1G4 arm were paired with the anti-CD3 38E4v1 or 40G5c arm as TDBs and tested for affinity to human and cynomolgus LY6G6D in a BIAcore® assay. Rabbit 20Al2, rabbit 6E10, and humanized 20A12.QNTv12 and 20A12.SNVv12 were additionally assayed for binding as antigen-binding fragments (Fabs). LY6G6D-Fc was directly immobilized on a chip, and TDBs were flowed through at 37° C., except for the rb6E10 Fab, which was assayed at 25° C.

human LY6G6D-Fc [6] = target: T2, human LY6G6D-Fc; assay: BIAcore SPR
Description: as §1

[7] = target: T3, polypeptide comprising amino acids 93-104 of LY6G6D (HRDCYLGDLCNS) (human); assay: co-crystal structure, 2.2 A
T3 construct: also called LY6G6D peptide
T3 peptide: HRDCYLGDLCNS
Description: Ten 20A12.QNTv12 Fabs were tested.

human LY6G6D-Fc [8] = target: T2, human LY6G6D-Fc; assay: BIAcore SPR; chimeric Fab; Ly6G6D-Fc captured on Protein A chip; 37 C
[9] = target: T3, polypeptide comprising amino acids …; assay: co-crystal structure

B2: LY6G6D TDB assembled using a one-cell system comprising the anti-LY6G6D 20A12.QNTv12 arm (one-cell) and the anti-CD3 38E4v1 (WT) arm (bispecific antibody, V domains shown)
VH 1: EVQLLESGGGLVQPGGSLRLSCAASGFDFVNNAMIWVREAPGKGLEWVSALSFADNTAYYATWASGRFTISRDSSKTTVYLQMNSLRAEDTAVYYCMRGDLWGPGTLVTVSS
VL 1: DIQMTQSPSTLSASVGDRVTITCQASESITRYLNWYQKKPGKAPKLLIYDASKLPSGVPSRFSGSGSGTEFTLTISSLQPDDFATYYCQSTSFRGRSYQNTFGGGTKVEIK
VH 2: EVQLVQSGAEVKKPGASVKVSCKASGFTFTSYYIHWVRKAPGQGLEWIGWIYPENDNTKYNEKFKDRVTITADTSTSTAYLELSSLRSEDTAVYYCARDGYSRYYFDYWGQGTLVTVSS
VL 2: DIVMTQSPDSLAVSLGERATINCKSSQSLLNSRTRKNYLAWYQEKPGQSPKLLIYWTSTRKSGVPDRFSGSGSGTDFTLTISSLQAEDVAVYYCKQSFILRTFGQGTKVEIK
notes: also called WT one-cell; one-cell WT
Kd [1]: 20.6 nM
Kd [3]: 19.9 nM and 21.3 nM
koff [3]: 0.0516 s⁻¹ and 0.0498 s⁻¹
kon [3]: 2.59e+06 M⁻¹ s⁻¹ and 2.34e+06 M⁻¹ s⁻¹

B5: hu20A12.QNTv12 Fab (Fab, V domains shown)
VH: EVQLLESGGGLVQPGGSLRLSCAASGFDFVNNAMIWVRQAPGKGLEWVSALSFADNTAYYATWASGRFTISRDSSKTTVYLQMNSLRAEDTAVYYCMRGDLWGPGTLVTVSS
VL: DIQMTQSPSTLSASVGDRVTITCQASESITRYLNWYQQKPGKAPKLLIYDASKLPSGVPSRFSGSGSGTEFTLTISSLQPDDFATYYCQSTSFRGRSYQNTFGGGTKVEIKR
Kd (human LY6G6D-Fc [6]): 0.14 nM
Kd (human LY6G6D-Fc [5]): 0.136 nM
koff (human LY6G6D-Fc [5]): 0.000227 s⁻¹
kon (human LY6G6D-Fc [5]): 1.67e+06 M⁻¹ s⁻¹
binding result [7]: binds

B6: LY6G6D TDB assembled using a one-cell system comprising the anti-LY6G6D 20A12.QNTv12 arm (one-cell) and the anti-CD3 38E4v1 MD1 arm (bispecific antibody, V domains shown)
VH 1: EVQLLESGGGLVQPGGSLRLSCAASGFDFVNNAMIWVREAPGKGLEWVSALSFADNTAYYATWASGRFTISRDSSKTTVYLQMNSLRAEDTAVYYCMRGDLWGPGTLVTVSS
VL 1: DIQMTQSPSTLSASVGDRVTITCQASESITRYLNWYQKKPGKAPKLLIYDASKLPSGVPSRFSGSGSGTEFTLTISSLQPDDFATYYCQSTSFRGRSYQNTFGGGTKVEIK
VH 2: EVQLVQSGAEVKKPGASVKVSCKASGFTFTSYYIHWVRKAPGQGLEWIGWIYPENDNTKYNEKFKDRVTITADTSTSTAYLELSSLRSEDTAVYYCARDGYSRYYFDYWGQGTLVTVSS
VL 2: DIVMTQSPDSLAVSLGERATINCKSSQSLLNSRTRKNYLAWYQEKPGQPPKLLIYWASTRESGVPDRFSGSGSGTDFTLTISSLQAEDVAVYYCTQSFILRTFGQGTKVEIK
notes: also called 20A12.QNTv12.MD1/38E4v1; MD1 one-cell
Kd [1]: 32.6 nM
Kd (human LY6G6D-Fc [2]): 1.9 nM
koff (human LY6G6D-Fc [2]): 0.000796 s⁻¹
kon (human LY6G6D-Fc [2]): 420000 M⁻¹ s⁻¹
Kd [3]: 32.8 nM and 32.4 nM
koff [3]: 0.0504 s⁻¹ and 0.0456 s⁻¹
kon [3]: 1.54e+06 M⁻¹ s⁻¹ and 1.41e+06 M⁻¹ s⁻¹

B8: 1G4 Fab (Fab, V domains shown)
VH: EVQLVQSGAEVKKPGASVKVSCKASGYTFTTYVMHWVRQAPGQGLEWMGYINPYNDGTKYNEKFKGRVTMTRDTSISTAYMELSRLRSDDTAVYYCGRRNFDYWGQGTLVTVSS
VL: DIVMTQSPDSLAVSLGERATINCKSSQSLLLSGNQENYLAWHQQKPGQPPKTLITWASTRISGVPDRFSGSGSGTDFTLTISSLQAEDVAVYYCQQSYSAPYTFGGGTKVEIKR
notes: also called Fab of 1G4
binding result [9]: binds

The remaining lines, values ahead:

Kd [1]: 18.7 nM
Kd (human LY6G6D-Fc [2]): 1.89 nM
koff (human LY6G6D-Fc [2]): 0.000559 s⁻¹
kon (human LY6G6D-Fc [2]): 296000 M⁻¹ s⁻¹
Kd [3]: 18.8 nM and 18.6 nM
koff [3]: 0.0544 s⁻¹ and 0.0495 s⁻¹
kon [3]: 2.89e+06 M⁻¹ s⁻¹ and 2.66e+06 M⁻¹ s⁻¹
B1: LY6G6D TDB assembled using a one-cell system comprising the anti-LY6G6D 20A12.QNTv12 arm (one-cell) and the anti-CD3 38E4v1 MD4 arm (bispecific antibody, V domains shown)
VH 1: EVQLLESGGGLVQPGGSLRLSCAASGFDFVNNAMIWVREAPGKGLEWVSALSFADNTAYYATWASGRFTISRDSSKTTVYLQMNSLRAEDTAVYYCMRGDLWGPGTLVTVSS
VL 1: DIQMTQSPSTLSASVGDRVTITCQASESITRYLNWYQKKPGKAPKLLIYDASKLPSGVPSRFSGSGSGTEFTLTISSLQPDDFATYYCQSTSFRGRSYQNTFGGGTKVEIK
VH 2: EVQLVQSGAEVKKPGASVKVSCKASGFTFTSYYIHWVRKAPGQGLEWIGWIYPENDNTKYNEKFKDRVTITADTSTSTAYLELSSLRSEDTAVYYCARDGYSRYYFDYWGQGTLVTVSS
VL 2: DIVMTQSPDSLAVSLGERATINCKSSQSLLNSRTRKNYLAWYQEKPGQPPKLLIYWASTRKSGVPDRFSGSGSGTDFTLTISSLQAEDVAVYYCKQSFILRTFGQGTKVEIK
notes: also called 20A12.QNTv12.MD4/38E4v1; MD4 one-cell

Kd (human LY6G6D-Fc [4]): 16.3 nM
koff (human LY6G6D-Fc [4]): 0.00886 s⁻¹
kon (human LY6G6D-Fc [4]): 544000 M⁻¹ s⁻¹
B3: LY6G6D TDB comprising the anti-LY6G6D 1G4 arm and the anti-CD3 38E4.v1 arm (bispecific antibody, V domains shown)
VH 1: EVQLVQSGAEVKKPGASVKVSCKASGYTFTTYVMHWVRQAPGQGLEWMGYINPYNDGTKYNEKFKGRVTMTRDTSISTAYMELSRLRSDDTAVYYCGRRNFDYWGQGTLVTVSS
VL 1: DIVMTQSPDSLAVSLGERATINCKSSQSLLLSGNQENYLAWHQQKPGQPPKTLITWASTRISGVPDRFSGSGSGTDFTLTISSLQAEDVAVYYCQQSYSAPYTFGGGTKVEIK
VH 2: EVQLVQSGAEVKKPGASVKVSCKASGFTFTSYYIHWVRQAPGQGLEWIGWIYPENDNTKYNEKFKDRVTITADTSTSTAYLELSSLRSEDTAVYYCARDGYSRYYFDYWGQGTLVTVSS
VL 2: DIVMTQSPDSLAVSLGERATINCKSSQSLLNSRTRKNYLAWYQQKPGQSPKLLIYWTSTRKSGVPDRFSGSGSGTDFTLTISSLQAEDVAVYYCKQSFILRTFGQGTKVEIK
notes: also called 1G4/38E4v1

Kd (human LY6G6D-Fc [5]): 0.0195 nM
koff (human LY6G6D-Fc [5]): 4.26e-05 s⁻¹
kon (human LY6G6D-Fc [5]): 2.18e+06 M⁻¹ s⁻¹
B4: hu20A12.SNVv12 Fab (Fab, V domains shown)
VH: EVQLLESGGGLVQPGGSLRLSCAASGFDFVNNAMIWVRQAPGKGLEWVSALSFADNTAYYATWASGRFTISRDSSKTTVYLQMNSLRAEDTAVYYCMRGDLWGPGTLVTVSS
VL: DIQMTQSPSTLSASVGDRVTITCQASESITRYLNWYQQKPGKAPKLLIYDASKLPSGVPSRFSGSGSGTEFTLTISSLQPDDFATYYCQSTSFRGRSYSNVFGGGTKVEIKR

Kd (human LY6G6D-Fc [8]): 0.86 nM
B7: rb20A12.IA (C35I-C50A) chimeric Fab (Fab, V domains shown)
VH: QQQLEESGGDLVKPGASLTLTCTASGFDFVNNAMIWVRQAPGKGLEWIAALSFADNTAYYATWASGRFTISKISSTTVTLRMTSLTGADTATYFCMRGDLWGPGTLVTVSS
VL: DIVMTQTPSSVSAAVGGTVTINCQASESITRYLNWYQQKPGQPPKLLIYDASKLPSGVPSRFKGSGSGTQFTLTTSDLECADAATYYCQSTSFRGRSYNNTFGGGTEVVVK
notes: also called rabbit 20A12 comprising C35I and C50A (IA) mutations
